Assays:
[1] = target: T1, MSRV complete ENV protein (ENV-T), recombinant from E. coli (MSRV (Multiple Sclerosis associated …)); assay: ELISA; ENV 0.25 ug/ml coated; mAb 1 ug/ml
T1 construct: also called ENV-T 7A; His-ENV-T
T1 chain: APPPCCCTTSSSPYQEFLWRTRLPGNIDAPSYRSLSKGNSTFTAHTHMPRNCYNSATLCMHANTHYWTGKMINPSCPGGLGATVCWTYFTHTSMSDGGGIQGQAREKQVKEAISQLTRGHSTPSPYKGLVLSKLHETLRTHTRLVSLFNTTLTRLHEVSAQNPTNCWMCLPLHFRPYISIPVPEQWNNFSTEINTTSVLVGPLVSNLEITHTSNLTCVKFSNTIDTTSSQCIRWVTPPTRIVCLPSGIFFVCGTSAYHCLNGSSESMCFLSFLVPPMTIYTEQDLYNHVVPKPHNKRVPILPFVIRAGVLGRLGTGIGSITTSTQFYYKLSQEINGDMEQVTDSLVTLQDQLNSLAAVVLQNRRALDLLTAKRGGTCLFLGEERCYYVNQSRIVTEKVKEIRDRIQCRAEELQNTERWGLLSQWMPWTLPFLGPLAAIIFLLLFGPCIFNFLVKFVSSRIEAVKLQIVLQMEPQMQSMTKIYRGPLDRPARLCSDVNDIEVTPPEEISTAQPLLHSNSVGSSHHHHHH
Method: (§1) Protocol: Incubation 2 h at 37° C. […] Revelation is made by adding OPD substrate and reading optic density with a spectrophotometer after 30 min (Washing steps with PBS are performed between every step).

[2] = target: T1, MSRV complete ENV protein (ENV-T), …; assay: ELISA; ENV-T 7A 1 ug/ml coated; mAb 0.03125 ug/ml
Method: as §1

[3] = target: T1, MSRV complete ENV protein (ENV-T), …; assay: ELISA; coated ENV-T 7A 0.0625; ligand 1 microgram
Method: (§2) II-1d Direct ELISA on Microplates Coated with ENV Antigen (ENV-T or ENV-SU as Described Above) [0159] Microwells were coated with 100 μl per well of ENV antigen diluted in 50 mM Sodium Bicarbonate, pH 9.6. Plate were sealed and incubated 2 hours at 37° C. under light agitation. [0160] Microwells were washed 4 times with 250 μl per well of PBS (Phosphate Buffer Saline). After the last, plates were inverted and blotted on absorbent paper to remove any residual buffer. [0161] 100 μl per well of detection antibody according to the present invention (GNbAC1 or its Fab fragment) diluted in PBS+BSA 1% (PBS with 1% of Bovine Serum Albumin) were added. Plate were sealed and incubated 1 hour at room temperature under light agitation. […] Microwells were washed 4 times with 250 μl per well of PBS. After the last, plates were inverted and blotted on absorbent paper to remove any residual buffer. [0163] […] Plate were sealed and incubated 1 hour at room temperature under light agitation. [0164] Microwells were washed 6 times with 250 μl per well of PBS. After the last, plates were inverted and blotted on absorbent paper to remove any residual buffer. [0165] 100 μl par well of Substrate Solution (1 tablet of o-Phenylenediamine (OPD) diluted in 10 ml of 0.05M Phosphate Citrate Buffer pH5+10 μl H2O2 30%, prepared at the last moment) were added. Plates were incubated 30 min at room temperature in the dark. […] 50 μl per well of Stop Solution 2N H2SO₄ were added. [0167] The absorbance was read at 490 nm within 30 minutes of stopping reaction.
(§3) Env-T antigen is coated onto microtiter ELISA plate wells with serial dilutions ranging from 1 μg/ml to about 0.01 μg/ml.

[4] = target: T1, MSRV complete ENV protein (ENV-T), …; assay: ELISA; ENV 0.125 ug/ml coated; mAb 1 ug/ml
Method: as §1

[5] = target: T1, MSRV complete ENV protein (ENV-T), …; assay: ELISA; coated ENV-T 7A 0.0078; ligand 1 microgram
Method: as §2, §3

[6] = target: T1, MSRV complete ENV protein (ENV-T), …; assay: ELISA; coated ENV-T 7A 0.03125; ligand 1 microgram
Method: as §2, §3

[7] = target: T1, MSRV complete ENV protein (ENV-T), …; assay: ELISA; coated ENV-T 7A, concentration cell blank (top of series, 1 µg/ml per paragraph 198); ligand 1 microgram
Method: as §2, §3

[8] = target: T2, MSRV ENV surface domain fragment (ENV-SU), recombinant from E. coli (MSRV (Multiple Sclerosis associated …)); assay: cell-based or functional assay
T2 chain: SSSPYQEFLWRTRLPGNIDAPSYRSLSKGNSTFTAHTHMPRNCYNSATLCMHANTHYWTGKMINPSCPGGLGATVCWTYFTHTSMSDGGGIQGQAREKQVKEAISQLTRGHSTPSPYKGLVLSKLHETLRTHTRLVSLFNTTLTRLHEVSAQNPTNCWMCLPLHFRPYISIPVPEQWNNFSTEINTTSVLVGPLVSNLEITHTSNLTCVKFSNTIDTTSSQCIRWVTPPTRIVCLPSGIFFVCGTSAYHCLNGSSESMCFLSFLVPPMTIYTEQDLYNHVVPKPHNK

[9] = target: T1, MSRV complete ENV protein (ENV-T), …; assay: ELISA; ENV 0.0078 ug/ml coated; mAb 1 ug/ml
Method: as §1

[10] = target: T1, MSRV complete ENV protein (ENV-T), …; assay: ELISA; ENV-T 7A 1 ug/ml coated; mAb 0.0078 ug/ml
Method: as §1

[11] = target: T2, MSRV ENV surface domain fragment …; assay: cell-based or functional assay
[12] = target: T1, MSRV complete ENV protein (ENV-T), …; assay: cell-based or functional assay

B1: GNbAC1 murine monoclonal antibody (IgG1/kappa) (antibody, V domains shown)
VH: QVQLQQSGAELVRPGAPVTLSCKASGYTFTDYEMHWVKQTPVHGLEWIGAVAPETGGTAYNQKFKGKATLTAAKSSSTAYMELRSLTSEDSAVYYCTSTVVPFAYWGQGTLVTVSA
VL: QIVLTQSPAIMSASPGEKVTISCSASSSVSYMYWYQQKPGSSPKAWIYRTSNLASGVPGRFSGSGSGTSYSLTISSMEAEDAATYYCQQYQSLPLTFGSGTKLEIK
notes: Murine IgG1/kappa from hybridoma; also called murine IgG1; muIgG
B1 gave an optic density [1] of 1.42 OD, an optic density [2] of 0.406 OD and an optical density [3] of 1.56 OD. For the same binder, the optic density [4] was 0.975 OD, the optical density [5] was 0.625 OD and the optical density [6] was 1.34 OD. For the same binder, the optical density [7] was 3 OD, the “IFN-gamma Inhibition (%)” value [8] was 52% and the “IFN-gamma Response (%)” value [8] was 48%. For the same binder, the “IFN-gamma pg/ml, PBMC 72 h” value [8] was 270 pg/mL, the “IL-6 pg/ml, PBMC 72 h” value [8] was 42200 pg/mL and the “IL-6 Inhibition (%)” value [8] was 52%. The “IL-6 Response (%)” value [8] was 48%, the optic density [9] was 0.111 OD and the optic density [10] was 0.13 OD.

B2: Chimeric GNb AC1 IgG4 (human IgG4 constant regions with murine VH and VL) (antibody, V domains shown)
VH: QVQLQQSGAELVRPGASVTLSCKASGYTFTDYEMHWVKQTPVHGLEWIGAVAPETGGTAYNQKFKGKATLTAAKSSSTAYMELRSLTSEDSAVYYCTSTVVPFAYWGQGTLVTVSA
VL: QIVLTQSPAIMSASPGEKVTISCSASSSVSYMYWYQQKPGSSPKAWIYRTSNLASGVPGRFSGSGSGTSYSLTISSMEAEDAATYYCQQYQSLPLTFGSGTKLEIKR
notes: also called GNbAC1 chimeric IgG4; GNbAC1-IgC4
For B2, the optic density [1] was 2.3 OD, the optic density [2] was 1.26 OD and the optical density [3] was 1.52 OD. For the same binder, the optic density [4] was 1.56 OD, the optical density [5] was 0.692 OD and the “IFN-g at 72 h in PBMC culture with ENV-SU 0.5 ug/ml, MAb ratio 10/1 (no antibody: 336)” value [11] was 384. The “IL-6 at 24 h in PBMC culture with ENV-T 0.1 ug/ml, MAb ratio 10/1 (no antibody: 4363)” value [12] was 2270, the optical density [6] was 1.37 OD and the optical density [7] was 3 OD. The “IFN-gamma Inhibition (%)” value [8] was 43%, the “IFN-gamma Response (%)” value [8] was 57% and the “IFN-gamma pg/ml, PBMC 72 h” value [8] was 318 pg/mL. The “IL-6 pg/ml, PBMC 72 h” value [8] was 53000 pg/mL, the “IL-6 Inhibition (%)” value [8] was 40% and the “IL-6 Response (%)” value [8] was 60%. It also gave an optic density [9] of 0.313 OD and an optic density [10] of 0.474 OD.

B3: Chimeric GNb AC1 IgG1 (human IgG1 constant regions with murine VH and VL) (antibody, V domains shown)
VH: QVQLQQSGAELVRPGAPVTLSCKASGYTFTDYEMHWVKQTPVHGLEWIGAVAPETGGTAYNQKFKGKATLTAAKSSSTAYMELRSLTSEDSAVYYCTSTVVPFAYWGQGTLVTVSA
VL: QIVLTQSPAIMSASPGEKVTISCSASSSVSYMYWYQQKPGSSPKAWIYRTSNLASGVPGRFSGSGSGTSYSLTISSMEAEDAATYYCQQYQSLPLTFGSGTKLEIK
notes: Human IgG1 heavy constant region and human kappa constant region, made in CHO cells; also called GNbAC1 chimeric IgG1; Ligand in human IgG1
Work on B3 yielded an optic density [1] of 2.27 OD, an optic density [2] of 1.98 OD and an optical density [3] of 1.8 OD. The optic density [4] was 1.82 OD, the optical density [5] was 0.815 OD and the optical density [6] was 1.56 OD. For the same binder, the optical density [7] was 3 OD, the “IFN-gamma Inhibition (%)” value [8] was -9% and the “IFN-gamma Response (%)” value [8] was 109%. The “IFN-gamma pg/ml, PBMC 72 h” value [8] was 606 pg/mL, the “IL-6 pg/ml, PBMC 72 h” value [8] was 32900 pg/mL and the “IL-6 Inhibition (%)” value [8] was 63%. For the same binder, the “IL-6 Response (%)” value [8] was 37%, the optic density [9] was 0.642 OD and the optic density [10] was 0.85 OD.

From patent publication US20110243962A1 (GENEURO, published 2011)
